Measured values: the Immune Epitope Database (IEDB)

Target: HLA-A*02:01
Assay: IEDB peptide-MHC binding, purified MHC/competitive/radioactivity; ≥ and ≤ were set here for values at or beyond the usual limits of such assays
Details: source organism: Mammarenavirus brazilense

Sequence | IC50 [µM]
ALIAVSLIAA | 0.028
GLLEWIFRAL | 0.439
LTSLGLLYTV | 0.218
EAINIALIAV | 1.48

Same assay, conditions: source organism: Mammarenavirus choriomeningitidis

Sequence | IC50 [µM]
ALPHIIDEV | 0.057

Same assay, conditions: source organism: Mammarenavirus juninense

Sequence | IC50 [µM]
ALVAVSLIAI | 0.324
FMISFDDIAV | 0.0054
GLHTEFQTV | 0.129
GLFQFFVFL | 0.495
SLIAIIKGIV | 0.763

Same assay, conditions: source organism: Mammarenavirus lassaense

Sequence | IC50 [µM]
FVFSTSFYLI | 0.329
SIISTFHLSI | 0.714
RMAWGGSYIA | 0.294

Same assay, conditions: source organism: Mammarenavirus machupoense

Sequence | IC50 [µM]
GLYMGNLSQL | 0.072
AMPGVLSYVI | 2.45
ALLPLSLLFL | 0.0047
SLIKSTLQV | 0.248
FLQEALNIAL | 0.016
MVDEEPAAL | 0.998
FLPKAAFAL | 0.03

Same assay, conditions: source organism: Mammarenavirus whitewaterense

Sequence | IC50 [µM]
GLLQFIVFLL | 0.242
GLTDLGLLYT | 0.102
FTMEWFLSGL | 0.07
ALNIALIAV | 0.019
FTPQIICGNV | 0.972
GLVDVCFWST | 0.071
FLKMRRIFGV | 0.064

Same assay, conditions: source organism: Vaccinia virus WR

Sequence | IC50 [µM]
TLRHIIGLLM | 0.748
YMNYYTTYI | 0.0011
YLLDDVLYT | 0.0013
VMNNLSELT | 2.08
DTVFDYYVL | 0.054
TMLMFIFTGI | 0.00089
YTDEVYDYL | 0.021
YLLDRGADI | 0.0086
ILASIIDYV | 0.00061
AITDAAVAVA | 3.83
LLSSVDYKNI | 0.908
KVHGLDVKNV | 1.9
ITLSLSKQDI | 0.211
KLQAAPYIV | 0.0012
TLLCVLPAVV | 0.0025
ALVASLNPNM | 1.33
KIIETYLGRV | 0.03
IITNAGTCTV | 0.454
LLDLFGPEV | 0.006
IMYTYFSNT | 0.057
KINPTLDNI | 0.244
FILTAILFFM | 0.00012
MASPENVIL | 0.846
VLITMLSIIL | 0.124
TVASAQIHL | 3.13
GLCIRISMVI | 2.04

Sequence | IC50 [µM]
SLTNEIYASI | 0.161
YIFAALGGSV | 0.045
SLMDMITLSL | 0.00059
ATYHIIIVAL | 1.15
SVVVPIKFIA | 4.06
GLDLENLYA | 0.117
SLEATYHIII | 4.99
SMDTLLFFL | 0.001
LMPIRTDTT | 2.17
SIINRDIIV | 0.699
SQYANCSSI | 0.081
RVFNEYGFVL | 0.535
SVSESNIDL | 0.569
KTDGIPITI | 0.048
NLNIVRDML | 2.76
IVMDNDDNI | 0.445
YLVPNVIGGV | 0.00061
YITALNHLV | 0.00071
YLKEYIPKA | 0.0017
LTNEIYASI | 0.864
YLFRIVSTV | 0.0012
IIDREVVANV | 0.063
DAIIDIEPDL | 2.27
HMNEIRINI | 0.67
YLLPGFVLT | 0.0057
RLLDDLVIV | 0.00065

Sequence | IC50 [µM]
ILLLIGICVA | 0.683
LTIMGVIFL | 0.608
FLVFVKPTT | 0.516
KTMAVTYEL | 0.0004
LLMTSLQYA | 0.0025
YLLAVCGCI | 0.013
GLCIRISMV | 0.216
MLMFIFTGI | 0.00038
SITKEKIKI | 4.81
AALGGSVNI | 1.46
IIDKDTNSVT | 2.8
FLPIIFDAFL | 0.00022
RVYKTIWEI | 0.285
LIFFVIILA | 0.234
LIVRYLIQV | 0.013
MIDDSIEGI | 0.21
YLIKLIEPV | 0.008
MLVNRMQRI | 0.048
ALLVATDPDA | 0.606
YTQDELINV | 0.0073
VVSVDCNKEL | 2.43
FLIVRLNQCM | 0.034
KLFLIKKMA | 1.07
SMICLSLILA | 0.101
LLLDYMTST | 0.007
VVLDATNDGL | 1.45

Sequence | IC50 [µM]
RLIVLFEVFV | 0.103
LLSYYVVYV | 0.00046
VLDATNDGLI | 0.369
GIFCFRILL | 0.0078
ITNGYLISI | 0.054
TIIFVLISI | 1.18
SLVEMMWDL | 0.011
FLTLLGIGCV | 0.00029
VVTLLCVLPA | 0.262
YMSFWCKSI | 0.026
LIMYSVIGV | 0.00055
YLDFLLLLLI | 0.018
GLVRLNAFL | 0.0017
YLFGGFSTL | 0.00087
KLQAAVMET | 0.363
IQESFIRFTV | 0.017
LILSLTCSV | 0.0013
SIEGELESL | 3.94
YIDAYVSRL | 0.0019
IVSKLTFLDV | 0.085
NLNIVRDMLV | 0.028
IVFVFILTA | 0.294
FIDSNEYEV | 0.00098
TLFLLFLEI | 0.056
PLGILSNYV | 2.71
